According to patent US20230357420A1 (VILLARIS THERAPEUTICS, published 2023):

T1: Human CD122 (human, UniProt P14784 27-551)
T1 sequence: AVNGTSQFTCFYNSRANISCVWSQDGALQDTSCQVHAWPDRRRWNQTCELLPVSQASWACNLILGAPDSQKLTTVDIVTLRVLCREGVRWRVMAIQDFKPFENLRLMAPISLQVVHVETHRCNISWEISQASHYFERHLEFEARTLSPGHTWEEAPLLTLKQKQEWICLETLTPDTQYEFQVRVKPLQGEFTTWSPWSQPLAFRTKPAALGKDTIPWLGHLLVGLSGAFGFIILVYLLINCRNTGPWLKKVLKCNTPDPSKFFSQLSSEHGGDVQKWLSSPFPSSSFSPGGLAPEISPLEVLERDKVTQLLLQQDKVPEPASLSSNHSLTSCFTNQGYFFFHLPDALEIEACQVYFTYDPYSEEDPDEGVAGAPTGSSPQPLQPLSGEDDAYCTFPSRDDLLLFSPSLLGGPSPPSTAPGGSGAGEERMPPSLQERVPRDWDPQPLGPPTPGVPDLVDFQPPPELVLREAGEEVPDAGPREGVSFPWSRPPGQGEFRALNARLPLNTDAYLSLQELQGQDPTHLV

T2: Human BCAM protein (human, UniProt P50895 32-547, limits assumed)
T2 construct: Protein used in ELISA; also called BCAM (ELISA antigen)
T2 sequence: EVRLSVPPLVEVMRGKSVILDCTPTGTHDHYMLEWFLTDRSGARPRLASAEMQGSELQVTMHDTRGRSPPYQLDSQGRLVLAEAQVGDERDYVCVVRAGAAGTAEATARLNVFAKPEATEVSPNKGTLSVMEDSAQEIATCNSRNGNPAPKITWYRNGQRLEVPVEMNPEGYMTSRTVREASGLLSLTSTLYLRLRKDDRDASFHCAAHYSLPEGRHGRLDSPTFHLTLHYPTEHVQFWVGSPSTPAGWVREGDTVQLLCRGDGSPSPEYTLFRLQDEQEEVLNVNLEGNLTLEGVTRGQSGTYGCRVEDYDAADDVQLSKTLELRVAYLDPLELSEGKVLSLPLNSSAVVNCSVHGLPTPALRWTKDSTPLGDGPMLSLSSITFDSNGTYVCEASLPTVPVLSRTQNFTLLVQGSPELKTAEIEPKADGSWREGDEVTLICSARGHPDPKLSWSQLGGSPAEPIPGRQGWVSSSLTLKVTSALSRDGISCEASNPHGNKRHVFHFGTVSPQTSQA

T3: Rhesus CD122 His tag (rhesus monkey, UniProt Q38J85 27-240 (cynomolgus entry))
T3 construct: also called rhCD122; cynomolgus and/or rhesus monkey CD122 His tag; not shown: His tag
T3 sequence: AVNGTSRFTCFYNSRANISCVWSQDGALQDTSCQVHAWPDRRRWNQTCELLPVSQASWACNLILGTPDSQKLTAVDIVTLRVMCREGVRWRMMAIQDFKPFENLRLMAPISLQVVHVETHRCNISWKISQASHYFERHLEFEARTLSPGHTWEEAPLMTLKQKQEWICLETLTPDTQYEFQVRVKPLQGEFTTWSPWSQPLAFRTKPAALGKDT

T4: Human CD122 His tagged (human, UniProt P14784 27-240)
T4 construct: also called hCD122; monomeric antigen; not shown: His tag
T4 sequence: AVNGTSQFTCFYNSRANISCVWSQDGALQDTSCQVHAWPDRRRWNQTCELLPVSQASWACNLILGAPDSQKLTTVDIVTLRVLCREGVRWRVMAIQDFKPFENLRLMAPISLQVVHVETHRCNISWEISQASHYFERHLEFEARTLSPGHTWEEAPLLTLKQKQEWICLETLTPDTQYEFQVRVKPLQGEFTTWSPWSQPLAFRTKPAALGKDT

T5: Human CILP2 protein (human, UniProt Q8IUL8 21-1156, limits assumed)
T5 construct: also called cartilage intermediate layer protein 2
T5 sequence (looked up): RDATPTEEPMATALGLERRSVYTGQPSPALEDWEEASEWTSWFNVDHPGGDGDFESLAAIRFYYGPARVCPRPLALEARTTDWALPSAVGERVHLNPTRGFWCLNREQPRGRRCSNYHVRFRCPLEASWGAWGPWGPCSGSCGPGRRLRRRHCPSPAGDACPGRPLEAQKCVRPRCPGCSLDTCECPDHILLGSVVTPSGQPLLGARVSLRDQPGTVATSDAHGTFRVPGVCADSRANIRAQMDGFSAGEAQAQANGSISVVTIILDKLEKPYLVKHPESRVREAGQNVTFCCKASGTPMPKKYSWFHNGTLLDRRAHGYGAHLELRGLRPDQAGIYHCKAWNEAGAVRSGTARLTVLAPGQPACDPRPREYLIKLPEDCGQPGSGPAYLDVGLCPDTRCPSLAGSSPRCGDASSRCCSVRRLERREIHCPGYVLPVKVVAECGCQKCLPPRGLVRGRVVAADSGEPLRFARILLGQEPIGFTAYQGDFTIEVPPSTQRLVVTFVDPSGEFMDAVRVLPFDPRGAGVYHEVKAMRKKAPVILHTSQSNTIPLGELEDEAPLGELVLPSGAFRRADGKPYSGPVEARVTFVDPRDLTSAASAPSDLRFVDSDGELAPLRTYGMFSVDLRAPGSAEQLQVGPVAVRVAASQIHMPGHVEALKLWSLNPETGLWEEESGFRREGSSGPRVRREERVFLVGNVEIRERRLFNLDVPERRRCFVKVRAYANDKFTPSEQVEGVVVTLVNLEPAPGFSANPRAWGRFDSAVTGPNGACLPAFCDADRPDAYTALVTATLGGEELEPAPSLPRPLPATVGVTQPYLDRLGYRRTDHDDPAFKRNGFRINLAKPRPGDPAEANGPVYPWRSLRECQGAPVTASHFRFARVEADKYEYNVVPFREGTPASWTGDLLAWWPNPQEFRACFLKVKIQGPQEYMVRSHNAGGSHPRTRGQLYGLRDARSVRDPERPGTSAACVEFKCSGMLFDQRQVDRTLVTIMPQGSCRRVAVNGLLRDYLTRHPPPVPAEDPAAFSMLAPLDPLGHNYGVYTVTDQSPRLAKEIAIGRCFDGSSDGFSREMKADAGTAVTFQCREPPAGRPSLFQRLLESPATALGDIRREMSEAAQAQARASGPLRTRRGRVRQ

B1: MAB05 (antibody, V domains shown)
VH: EVQLLESGGGLVQPGGSLRLSCAASGFTVTSYAVHWVRQAPGKGLEWLGVIWSGGSTDYNAAFISRLTISKDNSKNTVYFQMNSLRAEDTAVYYCARAGDANYDGFAYWGQGTLVTVSS
VL: DIQMTQSPSSLSASVGDRVTITCQASQSVSFLYWYQQRPGKAPRLLIYDTSNLASGVPSRFSGSGSGTSYTFTISSLQPEDIATYYCQQWSTYPLTFGQGTKVEIK
notes: also called Mab5; clone 05
B2: VillFab-1 (Fab, V domains shown)
VH: EVQLLESGGGLVQPGGSLRLSCAASGFSVTSYGVHWIRQAPGKGLEWLGVIWSGGSTDYNAAFISRLTISKDNSKNTVYFQMNSLQAEDTAIYYCARAGDYNYDGFAYWGQGTLVTVSS
VL: DIVLTQSPSSLSASVGDRVTITCSGSSSVSFMYWYQQRPGKAPRLLIYDTSNLASGVPSRFSGSGSGTSYTFTISSLQPEDIATYYCQQWSTYPLTFGQGTKVEVK
notes: also called Villmab-1 in human Fab format
B3: MAB06 (antibody, V domains shown)
VH: EVQLLESGGGLVQPGGSLRLSCAASGFTVTSYAVHWVRQAPGKGLEWLGVIWSGGSTDYNAAFISRLTISKDNSKNTVYFQMNSLRAEDTAVYYCARAGDANYDGFAYWGQGTLVTVSS
VL: DIQMTQSPSSLSASVGDRVTITCQASSSVSFMYWYQQRPGKAPRLLIYDTSNLASGVPSRFSGSGSGTSYTFTISSLQPEDIATYYCQQWSTYPLTFGQGTKVEIK
notes: also called Mab6; clone 06

What was measured:
[1] = molecular target: T1, Human CD122; assay: cell-based or functional assay
[2] = molecular target: T2, Human BCAM protein; assay: binding ELISA on human BCAM protein, IgG at log10 about 1.1 to 3.0 nM, OD450nm
[3] = molecular target: T3, Rhesus CD122 His tag; assay: Biacore SPR, Fab, 1:1 binding
[4] = molecular target: T4, Human CD122 His tagged; assay: Biacore, Fab affinity and kinetics on hCD122
[5] = molecular target: T3, Rhesus CD122 His tag; assay: Biacore SPR, Fab
[6] = molecular target: T4, Human CD122 His tagged; assay: Biacore SPR, Fab
[7] = molecular target: T4, Human CD122 His tagged; assay: Biacore SPR, Fab, 1:1 binding
[8] = molecular target: T5, Human CILP2 protein; assay: BIACORE SPR, Fab at 62.5, 125, 250, 500 and 1000 nM on human CILP2 protein; Rmax
[9] = molecular target: T6, Human neudesin protein (human, UniProt Q9UMX5 32-172); assay: BIACORE SPR, Fab at 62.5, 125, 250, 500 and 1000 nM on human neudesin protein; Rmax
T6 construct: also called NENF
T6 sequence (Q9UMX5 32-172 limits assumed): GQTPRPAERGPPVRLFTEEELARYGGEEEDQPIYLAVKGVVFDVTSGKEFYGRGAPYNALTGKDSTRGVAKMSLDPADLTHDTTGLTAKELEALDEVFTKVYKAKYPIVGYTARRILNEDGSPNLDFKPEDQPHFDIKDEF

| Binder | IC50, IL-15-induced CD4+ T cell accumulation [1] [µg/mL] | IC50, IL-15-induced skin-resident CD8+ T cell accumulation [1] [µg/mL] | fold improvement of potency over VillMab-1, IL-15 stimulated M07e assay [1] [fold] | binding result [2] | Kd [3] [nM] | koff [3] [s⁻¹] | kon [3] [M⁻¹ s⁻¹] | Kd [4] [nM] | koff [4] [s⁻¹] | kon [4] [M⁻¹ s⁻¹] | Kd [5] [nM] | Kd [6] [nM] | Kd [7] [nM] | koff [7] [s⁻¹] | kon [7] [M⁻¹ s⁻¹] | binding result [8] | binding result [9] |
| --- | --- | --- | --- | --- | --- | --- | --- | --- | --- | --- | --- | --- | --- | --- | --- | --- | --- |
| B1 | 2.1 | 1.9 | ~2 | no binding (tested: 1000 nM (log10 3.0)) | – | – | – | – | – | – | – | – | – | – | – | – | – |
| B2 | – | – | – | – | 12 | 0.00279 | 233000 | 12.4 | 0.0034 | 270000 | 10.2 | 12.4 | 16.5 | 0.00372 | 226000 | no binding (tested: 1000 nM) | no binding (tested: 1000 nM) |
| B3 | 1.8 | 1.8 | ~2 | no binding (tested: 1000 nM (log10 3.0)) | – | – | – | – | – | – | – | – | – | – | – | – | – |
